This data set concerns the molecule itself. Briefly: SEC. (In gel filtration, larger molecules generally elute earlier.)

B1: EBOV VP35 fused with maltose-binding protein at its N-terminal (MBP–VP35) (natural protein)
chain: MTTRTKGRGHTAATTQNDRMPGPELSGWISEQLMTGRIPVSDIFCDIENNPGLCYASQMQQTKPNPKTRNSQTQTDPICNHSFEEVVQTLASLATVVQQQTIASESLEQRITSLENGLKPVYDMAKTISSLNRVCAEMVAKYDLLVMTTGRATATAAATEAYWAEHGQPPPGPSLYEESAIRGKIESRDETVPQSVREAFNNLNSTTSLTEENFGKPDISAKDLRNIMYDHLPGFGTAFHQLVQVICKLGKDSNSLDIIHAEFQASLAEGDSPQCALIQITKRVPIFQDAAPPVIHIRSRGDIPRACQKSLRPVPPSPKIDRGWVCVFQLQDGKTLGLKI
As for B1, the binding result is “binds”.

For the origin of these results see publication PMC6582406 (Nucleic Acids Research, 2019).
